Data set [1] has as its system human neuroblastoma SH-SY5Y cells. Nature of the data set: Aβ42 aggregates on SH-SY5Y cells with or without 1,6-hexanediol treatment. The format is cell-based.
A short description of data set [2]: Diffusion coefficient of free Aβ42 in solution by MDS. The format is physicochemical. As to conditions: Stokes-Einstein equation from hydrodynamic radius measured by MDS.
The format of data set [3] is physicochemical.
Data set [4] in a line: Susceptibility of Aβ42 condensates to 1,6-hexanediol and KCl in vitro. The format is physicochemical. As to conditions: confocal microscopy.

The source of these data is publication doi:10.1101/2024.01.14.575549v2 (bioRxiv, 2024).

For amyloid β1-42 [Aβ42], the “area of Aβ42 species at high cell densities” value in data set [1] (SH-SY5Y 40 000 cells/well, 2 μM monomer, 48 h incubation) is below 50 µm^2. The “diffusion coefficient of Aβ42 in solution” value in data set [2] is reported as 1.4 ± 0.1 × 10^−10 m^2s^−1. Moreover, the “timescale for the direct solution to amyloid fibril transition” value in data set [3] (estimated from Figure 6d (FCS, non-LLPS conditions)) is on record as 61 h. Moreover, the “ΔG^‡LLPS, free energy barrier for monomeric to liquid transition” value in data set [3] (from t = 3 h, c = 2 μM) was found to be 8.01 kcal/mol. Further, the “ΔG^‡LTS, free energy barrier for liquid to solid transition” value in data set [3] (from t = 21 h) was determined as 8.05 kcal/mol. The “response of mature Aβ42 condensates to 100% 1,6-hexanediol” value in data set [4] (condensates incubated 22 h on DMPC membrane, 100% (6 M) HXD) was “remained intact”. Besides, in data set [4] (condensates on lipid membrane, 50% HXD), the “response of Aβ42 condensates to 50% 1,6-hexanediol” value is “dissolved”.
For the compound `OCCCCCCO` [HXD, 1,6-hexanediol, reference compound], the “decrease of Aβ42 aggregate number normalised by total cell area, versus vehicle” value in data set [1] (SH-SY5Y cells, 2 μM Aβ42 monomer for 16 h, then 2.5% w/v 1,6-hexanediol) is listed as 30%.
